Reference: PMC9098913, “In vitro reconstitution of Escherichia coli divisome activation” (Nature Communications, 2022)
Like-named read-outs stand apart in the source and are kept apart here.

How the values were obtained:
[1] = SEC-MALS oligomeric state of FtsA in solution; type: physicochemical
Experimental: Light scattering was recorded on a miniDAWN light scattering device (Wyatt). Changes in the refractive index were used to define the peak area, which was used to obtain the molecular mass. The analysis of the data was performed with the ASTRA software (Wyatt).

[2] = tested on: FtsZ; details: for PCCdiff FtsA/FtsZ: 1.25 µM FtsZ, mean ± s.d.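 On all read-outs here: pearson correlation of FtsA and FtsZ channels in dual-colour TIRF movies after subtracting consecutive frames to isolate growing filament ends, one frame per 2 s, ATP and GTP present.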
Excerpt: For this aim, we prepared differential time lapse movies[24], where we subtract the intensities of consecutive frames to selectively visualize the growing ends of filament bundles (Fig. 1d). We then calculated the Pearson correlation coefficient between the two channels of the differential movies (PCCdiff), which quantifies the covariation of the fluorescence signals for FtsA and FtsZ at the growing end of a filament bundle with a time resolution of the acquisition rate[4],[23],[24].
Additionally, the reaction chamber contained 4 mM ATP and 4 mM GTP, as well as a scavenging system to minimize photobleaching effects: 30 mM d-glucose, 0.050 mg ml^−1 Glucose Oxidase, 0.016 mg ml^−1 Catalase, 1 mM DTT and 1 mM Trolox. Prior addition of all components a corresponding buffer volume was removed from the chamber to obtain a total reaction volume of 100 µl. The dynamic protein pattern was monitored by time-lapse TIRF microscopy at one frame per 2 s and 50 ms exposure time.
Treadmilling dynamics, were quantified using an automated image analysis protocol previously developed by our group[24]. To visualize colocalization of the co-treadmilling FtsZ & FtsA filaments, we used dual-colour videos obtained at an acquisition rate of one frame per 2 s. The two channels were aligned using FIJI’s 3TP align plugin. Both channels were then subjected to the image subtraction protocol and colocalization was measured as described above.

[3] = 0.1µM FtsAs, replicate column 1
[4] = 0.1µM FtsAs, replicate column 2
[5] = 0.1µM FtsAs, replicate column 3
[6] = 0.2µM FtsAs, replicate column 1
[7] = 0.2µM FtsAs, replicate column 2
[8] = 0.2µM FtsAs, replicate column 3
[9] = 0.2µM FtsAs, replicate column 4
[10] = 0.2µM FtsAs, replicate column 5
[11] = 0.4 µM FtsA, p-value 1.82 × 10^−4
[12] = 0.4µM FtsAs, replicate column 1
[13] = 0.4µM FtsAs, replicate column 2
[14] = 0.4µM FtsAs, replicate column 3
[15] = 0.8µM FtsAs, replicate column 1
[16] = 0.8µM FtsAs, replicate column 2
[17] = 0.8µM FtsAs, replicate column 3

Question: With “FtsA WT: wild-type E. coli actin-homologue FtsA, membrane anchor of FtsZ” as the molecule, how does the “oligomeric state in solution” value [1] read?
Answer: monomeric in solution

Question: And the “PCC FtsA/FtsZ, mean of experiment (head 'Fig.1e_PCC'; n and values fit Fig. 1f PCCdiff)” value (from here on “PCC FtsA/FtsZ, mean of experiment”) [2, 3]?
Answer: 0.69

Question: What about the “PCC FtsA/FtsZ, mean of experiment” value [2, 4] of the same molecule?
Answer: 0.76

Question: And the “PCC FtsA/FtsZ, mean of experiment” value [2, 5]?
Answer: 0.71

Question: What about the “PCC FtsA/FtsZ, mean of experiment” value ([2]; 0.1µM FtsAs, replicate column 4) of the same molecule?
Answer: 0.71

Question: And the “PCC FtsA/FtsZ, mean of experiment” value ([2]; 0.1µM FtsAs, replicate column 5)?
Answer: 0.86

Question: And the “PCC FtsA/FtsZ, mean of experiment” value ([2]; 0.1µM FtsAs, replicate column 6)?
Answer: 0.67

Question: And the “PCC FtsA/FtsZ, mean of experiment” value [2, 6]?
Answer: 0.62

Question: What about the “PCC FtsA/FtsZ, mean of experiment” value [2, 7] of the same molecule?
Answer: 0.58

Question: And the “PCC FtsA/FtsZ, mean of experiment” value [2, 8]?
Answer: 0.67

Question: What about the “PCC FtsA/FtsZ, mean of experiment” value [2, 9] of the same molecule?
Answer: 0.71

Question: And the “PCC FtsA/FtsZ, mean of experiment” value [2, 10]?
Answer: 0.74

Question: And the “PCC FtsA/FtsZ, mean of experiment” value ([2]; 0.2µM FtsAs, replicate column 6)?
Answer: 0.57

Question: What about the “PCCdiff FtsA/FtsZ” value [2, 11] of the same molecule?
Answer: 0.18 ± 0.04

Question: What about the “PCC FtsA/FtsZ, mean of experiment” value [2, 12] of the same molecule?
Answer: 0.18

Question: What about the “PCC FtsA/FtsZ, mean of experiment” value [2, 13] of the same molecule?
Answer: 0.12

Question: What about the “PCC FtsA/FtsZ, mean of experiment” value [2, 14] of the same molecule?
Answer: 0.23

Question: What about the “PCC FtsA/FtsZ, mean of experiment” value [2, 15] of the same molecule?
Answer: 0.10

Question: And the “PCC FtsA/FtsZ, mean of experiment” value [2, 16]?
Answer: 0.12

Question: And the “PCC FtsA/FtsZ, mean of experiment” value [2, 17]?
Answer: 0.05

B1: FtsA R286W (protein)
chain: MIKATDRKLVVGLEIGTAKVAALVGEVLPDGMVNIIGVGSCPSRGMDKGGVNDLESVVKCVQRAIDQAELMADCQISSVYLALSGKHISCQNEIGMVPISEEEVTQEDVENVVHTAKSVRVRDEHRVLHVIPQEYAIDYQEGIKNPVGLSGVRMQAKVHLITCHNDMAKNIVKAVERCGLKVDQLIFAGLASSYSVLTEDERELGVCVVDIGGGTMDIAVYTGGALRHTKVIPYAGNVVTSDIAYAFGTPPSDAEAIKVRHGCALGSIVGKDESVEVPSVGGRPPWSLQRQTLAEVIEPRYTELLNLVNEEILQLQEKLRQQGVKHHLAAGIVLTGGAAQIEGLAACAQRVFHTQVRIGAPLNITGLTDYAQEPYYSTAVGLLHYGKESHLNGEAEVEKRVTASVGSWIKRLNSWLRKEF
modifications: Cy3 or Cy5 at the N-terminus in the labelled form (labelled CLEPTGG peptide conjugated to the 5xGly tag by sortagging); unlabelled protein also used; left off: TwinStrep-SUMO, N-terminal, cleaved | 5x
Question: Which results are given for B1?
Answer: oligomeric state in solution [1]: monomeric in solution; PCC FtsA/FtsZ, mean of experiment (head 'Fig.1e_PCC'; n and values fit Fig. 1f PCCdiff) [2, 3]: 0.68; PCC FtsA/FtsZ, mean of experiment (head 'Fig.1e_PCC'; n and values fit Fig. 1f PCCdiff) [2, 4]: 0.67; PCC FtsA/FtsZ, mean of experiment (head 'Fig.1e_PCC'; n and values fit Fig. 1f PCCdiff) [2, 5]: 0.48; PCC FtsA/FtsZ, mean of experiment (head 'Fig.1e_PCC'; n and values fit Fig. 1f PCCdiff) [2, 6]: 0.74; PCC FtsA/FtsZ, mean of experiment (head 'Fig.1e_PCC'; n and values fit Fig. 1f PCCdiff) [2, 7]: 0.79; PCC FtsA/FtsZ, mean of experiment (head 'Fig.1e_PCC'; n and values fit Fig. 1f PCCdiff) [2, 8]: 0.75; PCC FtsA/FtsZ, mean of experiment (head 'Fig.1e_PCC'; n and values fit Fig. 1f PCCdiff) [2, 9]: 0.76; PCC FtsA/FtsZ, mean of experiment (head 'Fig.1e_PCC'; n and values fit Fig. 1f PCCdiff) [2, 10]: 0.68; PCCdiff FtsA/FtsZ [2, 11]: 0.76 ± 0.04; PCC FtsA/FtsZ, mean of experiment (head 'Fig.1e_PCC'; n and values fit Fig. 1f PCCdiff) [2, 12]: 0.72; PCC FtsA/FtsZ, mean of experiment (head 'Fig.1e_PCC'; n and values fit Fig. 1f PCCdiff) [2, 13]: 0.78; PCC FtsA/FtsZ, mean of experiment (head 'Fig.1e_PCC'; n and values fit Fig. 1f PCCdiff) [2, 14]: 0.82; PCC FtsA/FtsZ, mean of experiment (head 'Fig.1e_PCC'; n and values fit Fig. 1f PCCdiff) ([2]; 0.4µM FtsAs, replicate column 4): 0.72; PCCdiff FtsA/FtsZ ([2]; 0.8 µM FtsA R286W): 0.76 ± 0.05; PCC FtsA/FtsZ, mean of experiment (head 'Fig.1e_PCC'; n and values fit Fig. 1f PCCdiff) [2, 15]: 0.79; PCC FtsA/FtsZ, mean of experiment (head 'Fig.1e_PCC'; n and values fit Fig. 1f PCCdiff) [2, 16]: 0.82; PCC FtsA/FtsZ, mean of experiment (head 'Fig.1e_PCC'; n and values fit Fig. 1f PCCdiff) [2, 17]: 0.76; PCC FtsA/FtsZ, mean of experiment (head 'Fig.1e_PCC'; n and values fit Fig. 1f PCCdiff) ([2]; 0.8µM FtsAs, replicate column 4): 0.69
